A word on the Kd: it is a measure of binding affinity in units of concentration. Higher therefore signals lower affinity. The koff is a measure of how fast the partners let go of each other. For orientation: kon means the rate constant with which the complex forms.

In test [1] the target is TRAIL-R2-Fc (human TRAIL-R2 aa 58-184, thrombin site, Fc of human IgG1), wild type (human) (UniProt O14763). Briefly: SPR; TRAIL-R2-Fc captured on anti-human Fc chip, UL141 analyte. For orientation: SPR reads the build-up and loss of mass on a sensor chip optically.
TRAIL-R2-Fc (human TRAIL-R2 aa 58-184, thrombin site, Fc of human IgG1), wild type (human), sequence (O14763 other isoform, or with tags, fused parts or gaps limits assumed): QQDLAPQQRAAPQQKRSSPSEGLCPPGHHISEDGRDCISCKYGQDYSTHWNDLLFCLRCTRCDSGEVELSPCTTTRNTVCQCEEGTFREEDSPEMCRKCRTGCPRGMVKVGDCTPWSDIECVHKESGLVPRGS
For test [2], the target named is TRAIL-R1-Fc (human TRAIL-R1/DR4 ectodomain Fc fusion) (human) (UniProt O00220). In words: SPR; TRAIL-R1-Fc immobilized, UL141 analyte.
TRAIL-R1-Fc (human TRAIL-R1/DR4 ectodomain Fc fusion) (human), sequence (O00220 24-239): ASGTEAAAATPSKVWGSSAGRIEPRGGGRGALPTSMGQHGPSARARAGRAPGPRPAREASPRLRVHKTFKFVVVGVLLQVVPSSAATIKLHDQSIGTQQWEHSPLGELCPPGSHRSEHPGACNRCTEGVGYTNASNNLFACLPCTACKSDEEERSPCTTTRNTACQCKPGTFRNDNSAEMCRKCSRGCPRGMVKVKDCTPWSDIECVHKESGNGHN
Test [3] shares this target. Briefly: SPR, steady-state (KDeq); TRAIL-R1-Fc immobilized, UL141 analyte.
Test [4] deals with CD155-Fc (CD155/PVR ectodomain Fc fusion) (human) (UniProt P15151). In words: SPR, KDave; CD155-Fc immobilized, UL141 analyte.
CD155-Fc (CD155/PVR ectodomain Fc fusion) (human), sequence (P15151 21-343 limits assumed): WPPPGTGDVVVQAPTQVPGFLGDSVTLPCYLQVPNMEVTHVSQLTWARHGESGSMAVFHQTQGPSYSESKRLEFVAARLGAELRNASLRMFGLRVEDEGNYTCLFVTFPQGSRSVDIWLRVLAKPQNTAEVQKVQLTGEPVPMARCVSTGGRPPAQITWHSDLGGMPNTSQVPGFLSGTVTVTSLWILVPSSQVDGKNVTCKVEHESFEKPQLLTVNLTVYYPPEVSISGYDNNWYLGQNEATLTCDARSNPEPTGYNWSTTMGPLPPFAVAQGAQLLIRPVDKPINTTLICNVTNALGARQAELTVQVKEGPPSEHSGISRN
For test [5] the target is unchanged. In words: SPR, kinetic 1:1 fit; CD155-Fc immobilized, UL141 analyte.
Test [6] shares this target. Briefly: SPR; CD155-Fc immobilized, UL141 analyte.
Test [7] has as its target TRAIL-R2-Fc mutant P150A (human) (UniProt O14763). In words: SPR; TRAIL-R2-Fc mutant captured on anti-human Fc chip, UL141 analyte.
The target in test [8] is TRAIL-R2-Fc mutant D148A (human) (UniProt O14763). The description is as above.
TRAIL-R2-Fc mutant D148A (human), sequence (O14763 other isoform, or with tags, fused parts or gaps D148A D148A limits assumed): as the sequence (O14763 other isoform, or with tags, fused parts or gaps limits assumed) above, with D91A counted along it
Test [9] concerns the target TRAIL-R2-Fc mutant M152A (human) (UniProt O14763). Described as above.
Test [10] addresses TRAIL-R2-Fc double mutant E78A/D109A (human) (UniProt O14763). The test is described as above.
Test [11] has as its target TRAIL-R2-Fc mutant F112A (human) (UniProt O14763). Described as above.
Test [12] addresses TRAIL-R2-Fc triple mutant M152A/R154A/K155A (human) (UniProt O14763). The description is as above.
Test [13] deals with TRAIL-R2-Fc mutant R154A (human) (UniProt O14763). The description is as above.
TRAIL-R2-Fc mutant R154A (human), sequence (O14763 other isoform, or with tags, fused parts or gaps R154A R154A limits assumed): as the sequence (O14763 other isoform, or with tags, fused parts or gaps limits assumed) above, with R97A counted along it
Test [14] concerns the target TRAIL-R2-Fc mutant V167A (human) (UniProt O14763). The test is described as above.
The target of test [15] is TRAIL-R2-Fc double mutant L110A/L114A (human) (UniProt O14763). The description is as above.
TRAIL-R2-Fc double mutant L110A/L114A (human), sequence (O14763 other isoform, or with tags, fused parts or gaps L110A L114A L110A L114A limits assumed): as the sequence (O14763 other isoform, or with tags, fused parts or gaps limits assumed) above, with L53A, L57A counted along it
For test [16], the target named is TRAIL-R2-Fc mutant K155A (human) (UniProt O14763). The description is as above.
TRAIL-R2-Fc mutant K155A (human), sequence (O14763 other isoform, or with tags, fused parts or gaps K155A K155A limits assumed): as the sequence (O14763 other isoform, or with tags, fused parts or gaps limits assumed) above, with K98A counted along it
Test [17] addresses TRAIL-R1-Fc (human TRAIL-R1/DR4 ectodomain Fc fusion) (human) (UniProt O00220). In words: SPR, kinetic 1:1 fit; TRAIL-R1-Fc immobilized, UL141 analyte.
For test [18] the target is unchanged. In words: SPR, average of KDeq and KD (KDave); TRAIL-R1-Fc immobilized, UL141 analyte.
The target of test [19] is TRAIL-R2-Fc (human TRAIL-R2 aa 58-184, thrombin site, Fc of human IgG1), wild type (human) (UniProt O14763). Briefly: SPR, kinetic 1:1 fit; TRAIL-R2-Fc immobilized, UL141 analyte.
Test [20] shares this target. Briefly: SPR; TRAIL-R2-Fc immobilized, UL141 analyte.
The target is the same in test [21]. In words: SPR, KDave; TRAIL-R2-Fc immobilized, UL141 analyte.
Test [22] has as its target TRAIL-R2-Fc mutant D148A (human) (UniProt O14763).
The target of test [23] is TRAIL-R2-Fc mutant F112A (human) (UniProt O14763).
TRAIL-R2-Fc mutant F112A (human), sequence (O14763 other isoform, or with tags, fused parts or gaps F112A F112A limits assumed): as the sequence (O14763 other isoform, or with tags, fused parts or gaps limits assumed) above, with F55A counted along it
In test [24] the target is TRAIL-R2-Fc mutant V167A (human) (UniProt O14763).
TRAIL-R2-Fc mutant V167A (human), sequence (O14763 other isoform, or with tags, fused parts or gaps V167A V167A limits assumed): as the sequence (O14763 other isoform, or with tags, fused parts or gaps limits assumed) above, with V110A counted along it
Test [25] addresses TRAIL-R2-Fc double mutant L110A/L114A (human) (UniProt O14763).
The target is the same in test [26]. Briefly: SPR, alanine mutant.
Test [27] addresses CD155-Fc (CD155/PVR ectodomain Fc fusion) (human) (UniProt P15151). Briefly: SPR; CD155-Fc immobilized, pre-formed UL141-TRAIL-R2 complex analyte.
Test [28] has the same target. Briefly: SPR, KDave; CD155-Fc immobilized, pre-formed UL141-TRAIL-R2 complex analyte.
Test [29] has the same target.
Test [30] concerns the target T1, TRAIL-R2 (DR5) ectodomain monomer, aa 58-184, without Fc (human, UniProt O14763 58-184).
T1 construct: range 58-184; also called monomeric TRAIL-R2; TRAIL-R2 monomer
Briefly: SPR, steady-state (KDeq); UL141-Fc immobilized, TRAIL-R2 analyte.

Test [31] addresses T1, TRAIL-R2 (DR5) ectodomain monomer, aa …. Briefly: SPR, average of KDeq and KD (KDave); UL141-Fc immobilized, TRAIL-R2 analyte.
For test [32] the target is unchanged. In words: SPR; UL141-Fc immobilized, TRAIL-R2 analyte.
Test [33] has the same target. In words: SPR, kinetic 1:1 fit; UL141-Fc immobilized, TRAIL-R2 analyte.
Test [34] deals with T2, mouse TRAIL-R2:Fc (extracellular domain of mouse TRAIL-R2 fused to human IgG constant domain) (mouse; human, UniProt Q9QZM4 53-180; P01857 104-330 = IgG part).
T2 construct: extracellular domain;domain: human IgG VH constant domain; also called mTRAIL-R2:Fc
T2 sequence (Q9QZM4 other isoform, or with tags, fused parts or gaps limits assumed): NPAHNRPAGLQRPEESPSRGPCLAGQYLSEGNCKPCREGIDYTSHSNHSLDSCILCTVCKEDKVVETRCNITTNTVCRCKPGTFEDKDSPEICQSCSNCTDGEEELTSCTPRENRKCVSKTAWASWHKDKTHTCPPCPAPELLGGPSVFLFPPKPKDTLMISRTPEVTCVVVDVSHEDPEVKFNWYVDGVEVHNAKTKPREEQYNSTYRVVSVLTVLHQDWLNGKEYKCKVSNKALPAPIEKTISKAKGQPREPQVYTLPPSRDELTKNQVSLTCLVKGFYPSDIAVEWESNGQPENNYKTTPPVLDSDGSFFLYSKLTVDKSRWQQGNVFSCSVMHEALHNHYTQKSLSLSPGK
Briefly: ELISA-based assay. (In general: An ELISA detects its analyte on a solid surface through an enzyme-linked reagent.)

Values joined by “and” are separate entries in the source; they are usually repeats but may differ in a detail not shown here. Identical values can stand only once. Like-named read-outs stand apart in the source and are kept apart here.

TRAIL-R2-Fc double mutant E78A/D109A (human), sequence (O14763 other isoform, or with tags, fused parts or gaps E78A D109A E78A D109A limits assumed): as the sequence (O14763 other isoform, or with tags, fused parts or gaps limits assumed) above, with E21A, D52A counted along it
TRAIL-R2-Fc mutant P150A (human), sequence (O14763 other isoform, or with tags, fused parts or gaps P150A P150A limits assumed): as the sequence (O14763 other isoform, or with tags, fused parts or gaps limits assumed) above, with P93A counted along it
TRAIL-R2-Fc triple mutant M152A/R154A/K155A (human), sequence (O14763 other isoform, or with tags, fused parts or gaps M152A R154A K155A M152A R154A K155A limits assumed): as the sequence (O14763 other isoform, or with tags, fused parts or gaps limits assumed) above, with M95A, R97A, K98A counted along it
T1 sequence (O14763 58-184 limits assumed): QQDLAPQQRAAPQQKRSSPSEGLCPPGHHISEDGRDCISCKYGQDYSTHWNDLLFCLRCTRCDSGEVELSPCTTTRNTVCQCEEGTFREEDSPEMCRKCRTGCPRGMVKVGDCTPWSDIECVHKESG
TRAIL-R2-Fc mutant M152A (human), sequence (O14763 other isoform, or with tags, fused parts or gaps M152A M152A limits assumed): as the sequence (O14763 other isoform, or with tags, fused parts or gaps limits assumed) above, with M95A counted along it

Turning to “UL141 ectodomain (HCMV FIX strain) with C-terminal poly-histidine tag (ligand)”, the Kd was 6 nM and 5.95 nM in test [1]; 2.27 nM in [3]; 2 nM in test [4]; 1.97 nM in test [5]; 8.32 nM in test [7]; 55.3 nM in test [8]. For the same molecule, the Kd worked out at 7.49 nM in test [9]; 60.4 nM in [10]; 630 nM in test [11]; 7.39 nM in test [12]; 6.26 nM in [13]; 15.5 nM in [14]. Besides, the Kd in test [15] was found to be 42.7 nM; in test [16], 7.74 nM; in test [17] it was 2330 nM; in [18] it was 2300 nM; in test [19] it was 5.96 nM; in [21], 6 nM. The off-rate (koff) came to 7.21e-05 s⁻¹ in test [1]; 0.014 s⁻¹ in [2]; 0.000346 s⁻¹ in [6]; 0.000391 s⁻¹ in test [7]; 0.0013 s⁻¹ in test [8]; 0.000382 s⁻¹ in [9]. In addition, the koff in test [10] amounted to 0.00151 s⁻¹; in [11] it was 0.00566 s⁻¹; in test [12], 0.00027 s⁻¹; in test [13], 0.000243 s⁻¹; in test [14] it was 0.00048 s⁻¹; in test [15] it was 0.00064 s⁻¹. Besides, the off-rate (koff) is 0.00038 s⁻¹ in [16] and 7.21e-05 s⁻¹ in [20]. Moreover, the on-rate (kon) in test [1] was 12100 M⁻¹ s⁻¹; in test [2] it was 6020 M⁻¹ s⁻¹; in test [6], 176000 M⁻¹ s⁻¹; in [7] it was 47000 M⁻¹ s⁻¹; in test [8], 23500 M⁻¹ s⁻¹; in test [9], 51000 M⁻¹ s⁻¹. In addition, the kon in test [10] stood at 25000 M⁻¹ s⁻¹; in test [11], 8980 M⁻¹ s⁻¹; in [12], 36500 M⁻¹ s⁻¹; in [13], 38800 M⁻¹ s⁻¹; in test [14], 31000 M⁻¹ s⁻¹; in test [15], 15000 M⁻¹ s⁻¹. Also, the on-rate (kon) in test [16] was found to be 49100 M⁻¹ s⁻¹; in [20], 12100 M⁻¹ s⁻¹. Further, the fold lower binding than wild-type in [8] was found to be 10 fold; in [10], 10 fold; in test [11] it was 100 fold; in test [14], 2.5 fold; in test [15], 10 fold. Further, the x-fold reduction in binding compared to wild type in [22] stood at 9.2 fold; in [23] it was 106 fold; in test [24] it was 2.6 fold; in test [25], 7.2 fold. In [26], this molecule came in with a fold decrease in binding affinity against wild-type of 7 fold.
“pre-formed UL141-TRAIL-R2 protein complex (from UniProt O14763 58-184)” gave an off-rate (koff) in test [27] of 0.000333 s⁻¹. Moreover, the on-rate constant (kon) in test [27] was found to be 152000 M⁻¹ s⁻¹. For the same molecule, the Kd in [28] worked out at 2 nM; in [29], 2.19 nM.

B1: UL141-Fc (UL141 ectodomain fused to the Fc region of human IgG1) (Fc fusion)
chain: DIAEKMWAENYETTSPAPVLVAEGEQVTIPCTVMTHSWPMVSIRARFCRSHDGSDELILDAVKGHRLMNGLQYRLPYATWNFSQLHLGQIFSLTFNVSTDTAGMYECVLRNYSHGLIMQRFVILTQLETLSRPDEPCCTPALGRYSLGDQIWSPTPWRLRNHDCGMYRGFQRNYFYIGRADAEDCWKPACPDEEPDRCWTVIQRYRLPGDCYRSQPHPPKFLPVTPAPPADIDTGMS
Turning to B1, the Kd in test [30] is 19.8 nM; in test [31] it was 20 nM; in test [33], 21.4 nM. The off-rate (koff) in test [32] stood at 0.00564 s⁻¹. Also, the on-rate (kon) in [32] is 264000 M⁻¹ s⁻¹. In test [34], the binding result is “no binding”.

Source of the values: US20140134647A1 (LA JOLLA INSTITUTE FOR ALLERGY AND IMMUNOLOGY, published 2014).
